Series [1] deals with the molecule itself. Nature of the series: negative-stain electron microscopy.
For series [2], the target named is T1, SpoIIIE motor domain (SpoIIIE C-terminal) (Bacillus subtilis, UniProt P21458 177-787).
T1 sequence: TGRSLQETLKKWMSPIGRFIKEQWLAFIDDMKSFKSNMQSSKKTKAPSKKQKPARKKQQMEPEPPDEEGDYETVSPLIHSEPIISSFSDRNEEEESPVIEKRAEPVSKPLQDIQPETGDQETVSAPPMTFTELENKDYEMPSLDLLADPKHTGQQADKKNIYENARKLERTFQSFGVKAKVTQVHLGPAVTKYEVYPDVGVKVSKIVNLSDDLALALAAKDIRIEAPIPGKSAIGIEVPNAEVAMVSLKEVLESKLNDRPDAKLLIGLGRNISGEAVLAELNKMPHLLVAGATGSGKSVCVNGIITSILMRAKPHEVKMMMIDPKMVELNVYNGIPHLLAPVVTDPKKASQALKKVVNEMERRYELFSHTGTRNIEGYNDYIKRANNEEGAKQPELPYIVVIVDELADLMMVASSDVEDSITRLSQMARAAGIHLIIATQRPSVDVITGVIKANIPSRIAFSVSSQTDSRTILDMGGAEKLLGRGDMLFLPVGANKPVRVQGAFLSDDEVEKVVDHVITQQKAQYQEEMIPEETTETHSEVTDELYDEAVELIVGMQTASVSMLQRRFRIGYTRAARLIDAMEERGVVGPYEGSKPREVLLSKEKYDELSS
Description: fluorescence anisotropy. Background: Fluorescence polarisation rises when a labelled molecule tumbles more slowly, as on binding a larger partner.

The target in series [3] is T1, SpoIIIE motor domain (SpoIIIE …). Description: fluorescence anisotropy. The source holds these as a separate data set.
Series [4] concerns the target T2, SpoIIIE467 (Walker A mutant) (Bacillus subtilis, UniProt P21458 177-787, G467S).
T2 sequence: T1 sequence with G291S
Description: fluorescence anisotropy.

Series [5] concerns the target T1, SpoIIIE motor domain (SpoIIIE …). Description: fluorescence anisotropy. This is another data set of the same source.

Numbering of substitutions follows the chain as printed. Like-named read-outs stand apart in the source and are kept apart here.

B1: SpoIIIE C-terminal motor domain (residues 177-787) with a C-terminal hexahistidine tag (domain or fragment, Bacillus subtilis, UniProt P21458 177-787, looked up)
chain: T1 sequence
By stoichiometry N is commonly meant a count of units in the complex or per binding partner. As to B1, the “stoichiometry N” value in series [1] was 6.

B2: DNANS (43 bp, no SRS) (dsDNA)
DNA 1: GCGGAGGCGGGAGGCGGAGATCTTACCGCTGTTGAGATCCAGC
DNA 2: GCTGGATCTCAACAGCGGTAAGATCTCCGCCTCCCGCCTCCGC
In general, Kd refers to the free concentration of one partner at which half of the binding sites on the other are occupied at equilibrium, for simple one-to-one binding. Low values mean a tighter complex, high ones a looser complex. Turning to B2, the Kd in series [2] was 61 ± 11 nM; in series [3], 43 ± 9 nM; in series [4] it was 63 ± 3 nM; in series [5], 60 ± 9 nM.

The record behind these values is PMC3936747 (Nucleic Acids Research, 2013).
